Molecular target: blue casein substrate (4-16% BlueCasein zymogram gel, Novex)

B1: recombinant 6 histidine tagged C. trachomatis HtrA polypeptide (serovar L2), purified from E. coli BL21 (DE3) (pET28-CtHtrA/L2) (protein)
chain: SPMLGYSASKKDSKADICLAVSSGDQEVSQEDLLKEVSRGFSRVAAKATPGVVYIENFPKTGNQAIASPGNKRGFQENPFDYFNDEFFNRFFGLPSHREQQRPQQRDAVRGTGFIVSEDGYVVTNHHVVEDAGKIHVTLHDGQKYTAKIVGLDPKTDLAVIKIQAEKLPFLTFGNSDQLQIGDWAIAIGNPFGLQATVTVGVVSAKGRNQLHIVDFEDFIQTDAAINPGNSGGPLLNINGQVIGVNTAIVSGSGGYIGIGFAIPSLMAKRVIDQLISDGQVTRGFLGVTLQPIDSELATCYKLEKVYGALVTDVVKGSPAEKAGLRQEDVIVAYNGKEVESLSALRNAISLMMPGTRVILKIVREGKTIEIPVTVTQIPTEDGVSALQKMGVRVQNITPEICKKLGLAADTRGILVVAVEAGSPAASAGVAPGQLILAVNRQRVASVEELNQVLKNSKGENVLLMVSQGDVVRFIVLKSDHHHHHHE
- protease activity in zymogram gel (zone of clearing): Recombinant C. trachomatis HtrA degradation (i.e. proteolysis) of the blue casein substrate is visualized as a zone of clearing at ˜49 kDa

— patent publication US20110027321
